Test results as given in patent publication US20240409618A1.

Molecular target: SARS-CoV-2 B.1.351 (Beta) spike on pseudotyped virus (SARS-CoV-2 B.1.351) (UniProt P0DTC2)
Assay: cell-based or functional assay

DMAb REGN10987 (FcWT) (antibody)
fold change of neutralization against B.1.351 pseudovirus relative to WA1/2020: < 3 fold
